Measurements from US20230220042A1 (SHANGHAI JIAO TONG UNIVERSITY SCHOOL OF MEDICINE, published 2023).
Numbering of substitutions follows the chain as printed. Names may count otherwise. Values belong to the molecule of their own block, whether it stands above or below them.

Assays:
Biotin-FcγRIIB (human) [1] = biological target: Biotin-FcγRIIB (human) (UniProt P31994); assay: FACS sorting of displayed Fc library on biotin-FcγRIIB, NGS; reference P271G
Biotin-FcγRIIB (human) [2] = biological target: Biotin-FcγRIIB (human) (UniProt P31994); assay: FACS sorting of displayed Fc library on biotin-FcγRIIB, NGS; reference G236V
Biotin-FcγRIIB (human) [3] = biological target: Biotin-FcγRIIB (human) (UniProt P31994); assay: FACS sorting of displayed Fc library on biotin-FcγRIIB, NGS
Biotin-FcγRIIB (human) [4] = biological target: Biotin-FcγRIIB (human) (UniProt P31994); assay: sorting of displayed Fc library on FcγRIIB, NGS
Biotin-FcγRIIB (human) [5] = biological target: Biotin-FcγRIIB (human) (UniProt P31994); assay: NGS of 3T3 display library IgG2_C01 flow-sorted for FcγRIIB binding
Biotin-FcγRIIB (human) [6] = biological target: Biotin-FcγRIIB (human) (UniProt P31994); assay: NGS of 3T3 display library Cmix flow-sorted for FcγRIIB binding
Biotin-FcγRIIB (human) [7] = biological target: Biotin-FcγRIIB (human) (UniProt P31994); assay: NGS of 3T3 display library C2 flow-sorted for FcγRIIB binding
Biotin-FcγRIIB (human) [8] = biological target: Biotin-FcγRIIB (human) (UniProt P31994); assay: NGS of 3T3 display library IgG2_C02 flow-sorted for FcγRIIB binding
Biotin-FcγRIIB (human) [9] = biological target: Biotin-FcγRIIB (human) (UniProt P31994); assay: magnetic sorting on biotin-FcγRIIB with unlabelled activating FcγRs, NGS; LibraryMix #4
Biotin-FcγRIIB (human) [10] = biological target: Biotin-FcγRIIB (human) (UniProt P31994); assay: magnetic sorting on biotin-FcγRIIB with unlabelled activating FcγRs, NGS; LibraryMix #3
Biotin-FcγRIIB (human) [11] = biological target: Biotin-FcγRIIB (human) (UniProt P31994); assay: magnetic sorting on biotin-FcγRIIB with unlabelled activating FcγRs, NGS; Library2
Biotin-FcγRIIB (human) [12] = biological target: Biotin-FcγRIIB (human) (UniProt P31994); assay: magnetic sorting on biotin-FcγRIIB with unlabelled activating FcγRs, NGS; Library4
[13] = biological target: Biotin-FcγRIIB (human FcγRIIB, Sino Biological) (human) (UniProt P31994); assay: NGS after FACS sort of 3T3-displayed Library4 for biotin-FcγRIIB binding
[14] = biological target: Biotin-FcγRIIB (human FcγRIIB, Sino Biological) (human) (UniProt P31994); assay: NGS after FACS sort of 3T3-displayed Library2 for biotin-FcγRIIB binding
[15] = biological target: Biotin-FcγRIIB (human FcγRIIB, Sino Biological) (human) (UniProt P31994); assay: flow cytometry, 3T3 cells displaying the antibody, biotin-FcγRIIB
[16] = biological target: Biotin-FcγRIIB (human FcγRIIB, Sino Biological) (human) (UniProt P31994); assay: NGS after FACS sort of 3T3-displayed LibraryMix for biotin-FcγRIIB binding
[17] = biological target: Biotin-FcγRIIB (human FcγRIIB, Sino Biological) (human) (UniProt P31994); assay: flow cytometry, 3T3 cells displaying the antibody, biotin-FcγRIIB + Streptavidin-APC
Biotin-FcγRIIB [18] = biological target: T1, Biotin-FcγRIIB (human, UniProt P31994 43-217, limits assumed, biotin-labelled); assay: FACS sorting of displayed Fc library on biotin-FcγRIIB, NGS
T1 construct: Bought, biotin-labelled; used at 1 µg/ml for staining and sorting; also called human FcγRIIB; CD32b
T1 sequence (looked up): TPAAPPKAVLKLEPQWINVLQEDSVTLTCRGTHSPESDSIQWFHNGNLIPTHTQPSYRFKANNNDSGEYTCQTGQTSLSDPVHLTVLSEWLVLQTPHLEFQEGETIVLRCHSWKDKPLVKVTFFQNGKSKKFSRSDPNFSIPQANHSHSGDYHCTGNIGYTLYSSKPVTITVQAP

Biotin-FcγRIIB [19] = biological target: T1, Biotin-FcγRIIB; assay: FACS sorting of displayed Fc library on biotin-FcγRIIB, NGS; reference S298R
Biotin-FcγRIIB [20] = biological target: T1, Biotin-FcγRIIB; assay: FACS sorting of displayed Fc library on biotin-FcγRIIB, NGS; reference P271C
Biotin-FcγRIIB [21] = biological target: T1, Biotin-FcγRIIB; assay: FACS sorting of displayed Fc library on biotin-FcγRIIB, NGS; reference S267E
Biotin-FcγRIIB [22] = biological target: T1, Biotin-FcγRIIB; assay: FACS sorting of displayed Fc library on biotin-FcγRIIB, NGS; reference P271G
Biotin-FcγRIIB [23] = biological target: T2, Biotin-FcγRIIB (human, UniProt P31994 43-217, limits assumed, biotin label); assay: NGS of 3T3 display library IgG2_C02 flow-sorted for FcγRIIB binding
T2 construct: Soluble labelled protein used to stain and sort the display cells; also called human FcγRIIB; CD32b
T2 sequence (looked up): T1 sequence (looked up)
From the text: Then flow cytometry is used for sorting the cells with high affinity to FcγRIIB for two to three rounds. […] IgG2_C01 is a combined mutation (Type I) library having at most 1 mutation in each of the four regions of P233-V240, V266-P271, S298-T299, and G327-I332; IgG2_C02 is a cell library made by combining the combined mutation (Type II) libraries of four regions of P233-V240, V266-P271, S298-T299 and G327-I332 together and transferring it into 3T3 cells.

Increased factor 2 c Site 1 (combined/point mutation) (Biotin-FcγRIIB (human) [1]): 2.9
Increased factor 2 c Site 2 (combined/point mutation) (Biotin-FcγRIIB (human) [2]): 30.5
Enrichment factor (after/before sorting) (Biotin-FcγRIIB (human) [3]): 10.3
Increased factor a (enrichment factor/wild-type enrichment factor) (Biotin-FcγRIIB (human) [3]): 13.7
Molecule: human IgG2 anti-mouse CD40 surface displayed antibody, Fc mutant P271G/G236V

Enrichment factor (percentage after sorting/percentage before sorting) (Biotin-FcγRIIB (human) [4]): 0.84
Molecule: human IgG2 anti-mouse CD40 surface displayed antibody, Fc mutant G236D

percentage after 1st sorting (Biotin-FcγRIIB (human) [5]): 61.6%
percentage after 2nd sorting (Biotin-FcγRIIB (human) [5]): 54.2%
percentage before sorting (Biotin-FcγRIIB (human) [5]): 63.8%
percentage after 1st sorting (Biotin-FcγRIIB (human) [6]): 1.32%
percentage after 2nd sorting (Biotin-FcγRIIB (human) [6]): 1.03%
percentage after 3rd sorting (Biotin-FcγRIIB (human) [6]): 0.4%
percentage before sorting (Biotin-FcγRIIB (human) [6]): 1.07%
percentage after 1st sorting (Biotin-FcγRIIB (human) [7]): 2.51%
percentage after 2nd sorting (Biotin-FcγRIIB (human) [7]): 5.25%
percentage after 3rd sorting (Biotin-FcγRIIB (human) [7]): 12.6%
percentage before sorting (Biotin-FcγRIIB (human) [7]): 8.97%
percentage after 1st sorting (Biotin-FcγRIIB (human) [8]): 58.4%
percentage after 2nd sorting (Biotin-FcγRIIB (human) [8]): 47.8%
percentage before sorting (Biotin-FcγRIIB (human) [8]): 56.6%
Molecule: human IgG2 anti-mouse CD40 surface displayed antibody, wild-type Fc

Enrichment factor (percentage after sorting/percentage before sorting) (Biotin-FcγRIIB (human) [9]): 0.94
Percentage after sorting/unbinding percentage (Biotin-FcγRIIB (human) [9]): 0.95
Percentage before sorting/unbinding percentage (Biotin-FcγRIIB (human) [9]): 1.01
Enrichment factor (percentage after sorting/percentage before sorting) (Biotin-FcγRIIB (human) [10]): 1.13
Percentage after sorting/unbinding percentage (Biotin-FcγRIIB (human) [10]): 1.06
Percentage before sorting/unbinding percentage (Biotin-FcγRIIB (human) [10]): 0.94
Enrichment factor (percentage after sorting/percentage before sorting) (Biotin-FcγRIIB (human) [11]): 0.83
Percentage after sorting/unbinding percentage (Biotin-FcγRIIB (human) [11]): 0.58
Percentage before sorting/unbinding percentage (Biotin-FcγRIIB (human) [11]): 0.7
Enrichment factor (percentage after sorting/percentage before sorting) (Biotin-FcγRIIB (human) [12]): 0.88
Percentage after sorting/unbinding percentage (Biotin-FcγRIIB (human) [12]): 0.85
Percentage before sorting/unbinding percentage (Biotin-FcγRIIB (human) [12]): 0.97
Molecule: human IgG2 anti-mouse CD40 surface displayed antibody (wild-type IgG2 Fc)

Enrichment factor (percentage after sorting/percentage before sorting) [13]: 1.49
Enrichment factor (percentage after sorting/percentage before sorting) [14]: 0.57
proportion of the cells capable of binding to FcγRIIB [15]: 0.23%
Enrichment factor (percentage after sorting/percentage before sorting) [16]: 0.75
proportion of the cells binding to FcγRIIB [17]: 0.34%
Molecule: human IgG2 anti-mouse CD40 surface displayed antibody (wild-type Fc)

Enrichment factor (percentage after sorting/percentage before sorting) [16]: 10.3
Increased factor (enrichment factor/wild-type enrichment factor) [16]: 13.7
Molecule: human IgG2 anti-mouse CD40 surface displayed antibody, P271G/G236V

Enrichment factor (percentage after sorting/percentage before sorting) (Biotin-FcγRIIB (human) [4]): 0.92
Molecule: human IgG2 anti-mouse CD40 surface displayed antibody, Fc mutant S298A

Enrichment factor (after/before sorting) (Biotin-FcγRIIB [18]): 2.45
Increased factor a (enrichment factor/wild-type enrichment factor) (Biotin-FcγRIIB [18]): 3.27
Increased factor 2 c Site 2 (combined/point mutation) (Biotin-FcγRIIB [19]): 4.2
B1: human IgG2 anti-mouse CD40 surface displayed antibody, Fc mutant P271A/S298R (antibody, name in EU numbering)
light chain (with the P2A rest): DTVLTQSPALAVSPGERVTISCRASDSVSTLMHWYQQKPGQQPKLLIYLASHLESGVPARFSGSGSGTDFTLTIDPVEADDTATYYCQQSWNDPWTFGGGTKLELKRTVAAPSVFIFPPSDEQLKSGTASVVCLLNNFYPREAKVQWKVDNALQSGNSQESVTEQDSKDSTYSLSSTLTLSKADYEKHKVYACEVTHQGLSSPVTKSFNRGECGSGATNFSLLKQAGDVEENPG
heavy chain: EVQLVESDGGLVQPGRSLKLPCAASGFTFSDYYMAWVRQAPTKGLEWVASISYDGSSTYYRDSVKGRFTISRDNAKSTLYLQMDSLRSEDTATYYCGRHSSYFDYWGQGVMVTVSSASTKGPSVFPLAPCSRSTSESTAALGCLVKDYFPEPVTVSWNSGALTSGVHTFPAVLQSSGLYSLSSVVTVPSSNFGTQTYTCNVDHKPSNTKVDKTVERKCCVECPPCPAPPVAGPSVFLFPPKPKDTLMISRTPEVTCVVVDVSHEDAEVQFNWYVDGVEVHNAKTKPREEQFNRTFRVVSVLTVVHQDWLNGKEYKCKVSNKGLPAPIEKTISKTKGQPREPQVYTLPPSREEMTKNQVSLTCLVKGFYPSDIAVEWESNGQPENNYKTTPPMLDSDGSFFLYSKLTVDKSRWQQGNVFSCSVMHEALHNHYTQKSLSLSPGKLEPPPSTVSNMATVAVLVVLGAAIVTGAVVAFVMKMRRRNTGGKGGDYALAPGSQTSDLSLPDCKVMVHDPHSLA
notes: as m1; positions are Eu numbers; copies: 2 + 2

Increased factor 2 c Site 2 (combined/point mutation) (Biotin-FcγRIIB [20]): 2.5
Enrichment factor (after/before sorting) (Biotin-FcγRIIB [18]): 42.2
Increased factor a (enrichment factor/wild-type enrichment factor) (Biotin-FcγRIIB [18]): 73.5
B2: human IgG2 anti-mouse CD40 surface displayed antibody, Fc mutant V266A/P271C (antibody, name in EU numbering)
light chain (with the P2A rest): B1 light chain (with the P2A rest)
heavy chain: B1 heavy chain with V261A, A266C, R293S
notes: as for B1

Increased factor 2 c Site 1 (combined/point mutation) (Biotin-FcγRIIB [21]): 1.5
Enrichment factor (after/before sorting) (Biotin-FcγRIIB [18]): 32.8
Increased factor a (enrichment factor/wild-type enrichment factor) (Biotin-FcγRIIB [18]): 43.8
Increased factor 2 c Site 2 (combined/point mutation) (Biotin-FcγRIIB [19]): 56.2
B3: human IgG2 anti-mouse CD40 surface displayed antibody, Fc mutant S267E/S298R (antibody, name in EU numbering)
light chain (with the P2A rest): B1 light chain (with the P2A rest)
heavy chain: B1 heavy chain with S262E, A266P
notes: as for B1

Increased factor 2 c Site 1 (combined/point mutation) (Biotin-FcγRIIB [22]): 4.5
Enrichment factor (after/before sorting) (Biotin-FcγRIIB [18]): 16
Increased factor a (enrichment factor/wild-type enrichment factor) (Biotin-FcγRIIB [18]): 21.4
Increased factor 2 c Site 2 (combined/point mutation) (Biotin-FcγRIIB [19]): 27.4
B4: human IgG2 anti-mouse CD40 surface displayed antibody, Fc mutant P271G/S298R (antibody, name in EU numbering)
light chain (with the P2A rest): B1 light chain (with the P2A rest)
heavy chain: B1 heavy chain with A266G
notes: as for B1

Increased factor 2 c Site 2 (combined/point mutation) (Biotin-FcγRIIB [20]): 58.4
Increased factor 2 c Site 1 (combined/point mutation) (Biotin-FcγRIIB [21]): 61.2
Enrichment factor (after/before sorting) (Biotin-FcγRIIB [18]): 1000
Increased factor a (enrichment factor/wild-type enrichment factor) (Biotin-FcγRIIB [18]): 1740
B5: human IgG2 anti-mouse CD40 surface displayed antibody, Fc mutant S267E/P271C (antibody, name in EU numbering)
light chain (with the P2A rest): B1 light chain (with the P2A rest)
heavy chain: B1 heavy chain with S262E, A266C, R293S
notes: as for B1

enrichment factor, percentage after 1st sorting/percentage before sorting (Biotin-FcγRIIB [23]): 80.5 ratio
enrichment factor, percentage after 2nd sorting/percentage after 1st sorting (Biotin-FcγRIIB [23]): 83.7 ratio
enrichment factor, percentage after 2nd sorting/percentage before sorting (Biotin-FcγRIIB [23]): 6730 ratio
increased factor, mutant enrichment factor/wild-type enrichment factor (Biotin-FcγRIIB [23]): 7970 ratio
B6: human IgG2 anti-mouse CD40 surface displayed antibody, S267E/H268S/E269D (antibody, name in EU numbering)
light chain (with the P2A rest): B1 light chain (with the P2A rest)
heavy chain: B1 heavy chain with S262E, H263S, E264D, A266P, R293S
notes: As m1 with the Fc mutations
